# Molecular target: TNFR1 on L929 cells (UniProt P25118)
# Experiment: cell-based or functional assay
# Sequence of UniProt P25118 (P25118 30-454 limits assumed): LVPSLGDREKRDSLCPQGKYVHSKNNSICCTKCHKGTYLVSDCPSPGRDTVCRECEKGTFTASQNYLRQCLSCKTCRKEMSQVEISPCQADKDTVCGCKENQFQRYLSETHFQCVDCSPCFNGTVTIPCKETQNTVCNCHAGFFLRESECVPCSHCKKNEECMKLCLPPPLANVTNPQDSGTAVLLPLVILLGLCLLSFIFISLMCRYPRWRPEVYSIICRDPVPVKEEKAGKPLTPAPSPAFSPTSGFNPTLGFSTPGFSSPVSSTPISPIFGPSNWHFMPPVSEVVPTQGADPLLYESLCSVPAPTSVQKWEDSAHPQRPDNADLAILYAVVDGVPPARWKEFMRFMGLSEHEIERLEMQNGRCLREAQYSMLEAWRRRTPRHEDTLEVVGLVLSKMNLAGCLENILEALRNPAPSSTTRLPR
Substance,EC50 of cytotoxic activity against L929 cells [ng/mL],loss of activity against unmodified scTNF-α (L929 cytotoxicity) [fold]
PRINT PEG5K scTNF-α (N-terminally mono-PEGylated with PEG-5000) (ligand),0.00058,–
PRINT PEG20K scTNF-α (N-terminally PEGylated with PEG-20000) (ligand),0.00062,–
citraconylated scTNF-α (lysine side chains globally blocked with citraconic anhydride) (ligand),0.0076,–
randomly PEGylated scTNF-α (direct conjugation with PEG NHS ester) (ligand),0.0046,10
"unmodified single-chain TNF-α (scTNF-α), His tag cleaved (ligand)",0.00035,–

# — patent US20200237923A1
